In one assay the target is T1, BTV-8 VP3 (SEQ ID NO:1) (Bluetongue virus serotype 8, UniProt P12435 1-901).
T1 sequence: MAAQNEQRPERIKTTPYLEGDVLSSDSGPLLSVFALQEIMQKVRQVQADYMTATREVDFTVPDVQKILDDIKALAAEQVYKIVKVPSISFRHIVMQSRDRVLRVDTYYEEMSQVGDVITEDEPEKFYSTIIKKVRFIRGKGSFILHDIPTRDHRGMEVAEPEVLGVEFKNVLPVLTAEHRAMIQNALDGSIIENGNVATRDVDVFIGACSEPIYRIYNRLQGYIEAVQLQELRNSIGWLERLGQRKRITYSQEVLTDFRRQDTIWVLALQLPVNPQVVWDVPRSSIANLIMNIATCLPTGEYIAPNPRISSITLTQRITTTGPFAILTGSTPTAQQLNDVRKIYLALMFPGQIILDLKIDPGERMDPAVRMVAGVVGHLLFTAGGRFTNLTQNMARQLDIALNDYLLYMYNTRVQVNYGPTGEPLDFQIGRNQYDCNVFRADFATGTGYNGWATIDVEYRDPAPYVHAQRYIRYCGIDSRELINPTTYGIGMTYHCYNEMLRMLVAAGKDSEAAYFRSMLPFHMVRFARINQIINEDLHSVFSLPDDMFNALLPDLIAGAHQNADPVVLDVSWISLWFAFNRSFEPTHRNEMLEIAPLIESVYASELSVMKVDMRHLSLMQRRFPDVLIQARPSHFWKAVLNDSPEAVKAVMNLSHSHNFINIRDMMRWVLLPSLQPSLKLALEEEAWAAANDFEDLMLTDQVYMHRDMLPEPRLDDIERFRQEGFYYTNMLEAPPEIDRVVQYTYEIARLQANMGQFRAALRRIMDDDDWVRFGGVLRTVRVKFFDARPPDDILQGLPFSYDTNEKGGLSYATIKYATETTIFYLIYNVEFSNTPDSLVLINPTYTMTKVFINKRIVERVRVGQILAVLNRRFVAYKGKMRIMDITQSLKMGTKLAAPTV
In words: particle assembly on co-expression in N. benthamiana; iodixanol gradient, TEM.

For a further assay, the target named is T2, BTV-8 VP7 (SEQ ID NO:6) (Bluetongue virus serotype 8, UniProt P69361 1-349).
T2 sequence: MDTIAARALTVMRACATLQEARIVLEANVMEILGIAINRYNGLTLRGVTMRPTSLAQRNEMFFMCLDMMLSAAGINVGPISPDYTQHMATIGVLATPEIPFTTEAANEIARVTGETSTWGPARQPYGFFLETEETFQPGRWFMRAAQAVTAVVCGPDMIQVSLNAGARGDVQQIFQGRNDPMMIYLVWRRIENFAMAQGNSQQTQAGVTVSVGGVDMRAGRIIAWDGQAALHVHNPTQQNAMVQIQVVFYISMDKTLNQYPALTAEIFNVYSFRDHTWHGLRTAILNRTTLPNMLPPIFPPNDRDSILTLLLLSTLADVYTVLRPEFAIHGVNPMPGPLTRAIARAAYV
In words: CLP assembly on co-expression; sucrose gradient, TEM (FIG. 13).

These results are taken from patent US20190136246A1 (CSIR, published 2019).

Positions count from the first letter of the chain named.

B1: BTV-8 VP7 (SEQ ID NO:5) (other)
chain: T2 sequence
Regarding B1, in the assay with BTV-8 VP3 (SEQ ID NO:1), the binding result was “binds”.

B2: BTV-8 VP3 (SEQ ID NO:2) (other)
chain: T1 sequence with M548V
With B2, the binding result with BTV-8 VP7 (SEQ ID NO:6) is recorded as “binds”.
